Test system: Escherichia coli TOP10
Experiment: shrunken log2 fold change of peptide-encoding DNA abundance (4.5 h post-induction vs induction); higher = less antimicrobial activity (less host growth inhibition)
Settings: time post-induction: 4.5 h; library: site-saturation at positions 5, 18, 19, 20
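Further: peptides expressed intracellularly from a pBAD plasmid library in pooled LB shake-flask culture, induced with 0.3% L-arabinose, DNA abundance read by NGS, three biological replicates, DESeq2 with apeglm shrinkage.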

## RRIRARPPRLPRPRPRPIRAPRP
  shrunken log2 fold change: 0.242

## RRIRNRPPRLPRPRPRPHKMPRP
  shrunken log2 fold change: -0.634

## RRIRPRPPRLPRPRPRPWVDPRP
  shrunken log2 fold change: 0.064

## RRIRNRPPRLPRPRPRPWVTPRP
  shrunken log2 fold change: -0.0711

## RRIRKRPPRLPRPRPRPYWVPRP
  shrunken log2 fold change: -0.306

## RRIRVRPPRLPRPRPRPDWYPRP
  shrunken log2 fold change: -0.0357

## RRIRMRPPRLPRPRPRPPNGPRP
  shrunken log2 fold change: 0.234

## RRIRRRPPRLPRPRPRPQWNPRP
  shrunken log2 fold change: -0.153

## RRIRARPPRLPRPRPRPKNNPRP
  shrunken log2 fold change: -0.0541

## RRIRPRPPRLPRPRPRPSCEPRP
  shrunken log2 fold change: -0.386

## RRIRHRPPRLPRPRPRPGFTPRP
  shrunken log2 fold change: -0.358

## RRIRLRPPRLPRPRPRPDAKPRP
  shrunken log2 fold change: 0.0577

## RRIRERPPRLPRPRPRPFHAPRP
  shrunken log2 fold change: -0.0736

## RRIRWRPPRLPRPRPRPGQPPRP
  shrunken log2 fold change: 0.326

## RRIRKRPPRLPRPRPRPKSRPRP
  shrunken log2 fold change: 0.296

## RRIRCRPPRLPRPRPRPRTMPRP
  shrunken log2 fold change: -0.0155

## RRIRGRPPRLPRPRPRPQKCPRP
  shrunken log2 fold change: 0.122

## RRIRWRPPRLPRPRPRPEALPRP
  shrunken log2 fold change: 0.174

## RRIRWRPPRLPRPRPRPQAWPRP
  shrunken log2 fold change: 0.23

## RRIRQRPPRLPRPRPRPCMNPRP
  shrunken log2 fold change: -0.0959

## RRIRHRPPRLPRPRPRPVKFPRP
  shrunken log2 fold change: -0.0191

## RRIRLRPPRLPRPRPRPFHPPRP
  shrunken log2 fold change: -0.0146

## RRIRIRPPRLPRPRPRPHMCPRP
  shrunken log2 fold change: -1.25

## RRIRFRPPRLPRPRPRPWKGPRP
  shrunken log2 fold change: -0.0869

## RRIRCRPPRLPRPRPRPPWHPRP
  shrunken log2 fold change: 0.0193

## RRIRARPPRLPRPRPRPPGTPRP
  shrunken log2 fold change: 0.898

## RRIRPRPPRLPRPRPRPCEGPRP
  shrunken log2 fold change: 0.156

## RRIRYRPPRLPRPRPRPAAAPRP
  shrunken log2 fold change: 0.455

## RRIRVRPPRLPRPRPRPTYPPRP
  shrunken log2 fold change: -0.194

## RRIRVRPPRLPRPRPRPGFPPRP
  shrunken log2 fold change: 0.141

## RRIRDRPPRLPRPRPRPCLRPRP
  shrunken log2 fold change: -0.188

## RRIRSRPPRLPRPRPRPWDCPRP
  shrunken log2 fold change: -0.00801

## RRIRMRPPRLPRPRPRPINWPRP
  shrunken log2 fold change: -0.011

## RRIRERPPRLPRPRPRPNCWPRP
  shrunken log2 fold change: 0.659

## RRIRARPPRLPRPRPRPECMPRP
  shrunken log2 fold change: 1.41

## RRIRIRPPRLPRPRPRPSFNPRP
  shrunken log2 fold change: -0.838

## RRIRKRPPRLPRPRPRPYVMPRP
  shrunken log2 fold change: -0.223

## RRIRRRPPRLPRPRPRPWRKPRP
  shrunken log2 fold change: 0.302

## RRIRHRPPRLPRPRPRPSKNPRP
  shrunken log2 fold change: -0.163

## RRIRTRPPRLPRPRPRPWGAPRP
  shrunken log2 fold change: 0.211

## RRIRIRPPRLPRPRPRPKWKPRP
  shrunken log2 fold change: -0.152

## RRIRIRPPRLPRPRPRPDCFPRP
  shrunken log2 fold change: -0.211

## RRIRFRPPRLPRPRPRPLQEPRP
  shrunken log2 fold change: -0.203

## RRIRTRPPRLPRPRPRPTGKPRP
  shrunken log2 fold change: -0.108

## RRIRQRPPRLPRPRPRPHNAPRP
  shrunken log2 fold change: -0.0184

## RRIRGRPPRLPRPRPRPYIHPRP
  shrunken log2 fold change: -0.252

## RRIRARPPRLPRPRPRPCKIPRP
  shrunken log2 fold change: -0.165

## RRIRQRPPRLPRPRPRPIDWPRP
  shrunken log2 fold change: 1.59e-05

## RRIRVRPPRLPRPRPRPAHIPRP
  shrunken log2 fold change: -0.0203

## RRIRYRPPRLPRPRPRPFYNPRP
  shrunken log2 fold change: -1.15

## RRIRLRPPRLPRPRPRPQGLPRP
  shrunken log2 fold change: -0.0348

## RRIRWRPPRLPRPRPRPCMLPRP
  shrunken log2 fold change: -0.215

## RRIRNRPPRLPRPRPRPKDRPRP
  shrunken log2 fold change: -0.0176

## RRIRPRPPRLPRPRPRPGIQPRP
  shrunken log2 fold change: -0.214

## RRIRSRPPRLPRPRPRPQSIPRP
  shrunken log2 fold change: -0.263

## RRIRFRPPRLPRPRPRPIPMPRP
  shrunken log2 fold change: -0.428

## RRIRLRPPRLPRPRPRPNVWPRP
  shrunken log2 fold change: 0.346

## RRIRERPPRLPRPRPRPKNCPRP
  shrunken log2 fold change: -0.0945

## RRIRLRPPRLPRPRPRPCEQPRP
  shrunken log2 fold change: 0.0377

## RRIRLRPPRLPRPRPRPFIYPRP
  shrunken log2 fold change: -0.504

## RRIRQRPPRLPRPRPRPCRAPRP
  shrunken log2 fold change: 0.106

## RRIRRRPPRLPRPRPRPDVGPRP
  shrunken log2 fold change: -0.042

## RRIRGRPPRLPRPRPRPSRCPRP
  shrunken log2 fold change: -0.0851

## RRIRIRPPRLPRPRPRPTVRPRP
  shrunken log2 fold change: 0.158

## RRIRSRPPRLPRPRPRPCFSPRP
  shrunken log2 fold change: -0.378

## RRIRPRPPRLPRPRPRPYGYPRP
  shrunken log2 fold change: -0.138

## RRIRGRPPRLPRPRPRPHPGPRP
  shrunken log2 fold change: 0.421

## RRIRPRPPRLPRPRPRPEQQPRP
  shrunken log2 fold change: -0.0146

## RRIRPRPPRLPRPRPRPFMTPRP
  shrunken log2 fold change: -0.511

## RRIRTRPPRLPRPRPRPMNRPRP
  shrunken log2 fold change: -0.0804

## RRIRARPPRLPRPRPRPTQHPRP
  shrunken log2 fold change: 0.698

## RRIRLRPPRLPRPRPRPVHYPRP
  shrunken log2 fold change: -0.498

## RRIRTRPPRLPRPRPRPWTCPRP
  shrunken log2 fold change: -0.0449

## RRIRQRPPRLPRPRPRPAPSPRP
  shrunken log2 fold change: 0.492

## RRIRPRPPRLPRPRPRPSIKPRP
  shrunken log2 fold change: -0.33

## RRIRIRPPRLPRPRPRPMETPRP
  shrunken log2 fold change: -0.0335

## RRIRFRPPRLPRPRPRPRTFPRP
  shrunken log2 fold change: -0.179

## RRIRHRPPRLPRPRPRPLIQPRP
  shrunken log2 fold change: -0.0847

## RRIRYRPPRLPRPRPRPYCEPRP
  shrunken log2 fold change: -0.0996

## RRIRKRPPRLPRPRPRPELRPRP
  shrunken log2 fold change: 1.12

## RRIRFRPPRLPRPRPRPMVYPRP
  shrunken log2 fold change: -0.389

## RRIRGRPPRLPRPRPRPNSGPRP
  shrunken log2 fold change: 0.00625

## RRIRPRPPRLPRPRPRPDCPPRP
  shrunken log2 fold change: -0.0368

## RRIRTRPPRLPRPRPRPRQDPRP
  shrunken log2 fold change: -0.144

## RRIRIRPPRLPRPRPRPFGIPRP
  shrunken log2 fold change: -0.972

## RRIRVRPPRLPRPRPRPKNEPRP
  shrunken log2 fold change: 0.00832

## RRIRPRPPRLPRPRPRPCNFPRP
  shrunken log2 fold change: -0.129

## RRIRLRPPRLPRPRPRPWRPPRP
  shrunken log2 fold change: 0.105

## RRIRVRPPRLPRPRPRPHFKPRP
  shrunken log2 fold change: -0.0898

## RRIRDRPPRLPRPRPRPMTYPRP
  shrunken log2 fold change: -0.109

## RRIRLRPPRLPRPRPRPYHPPRP
  shrunken log2 fold change: -0.00992

## RRIRYRPPRLPRPRPRPFICPRP
  shrunken log2 fold change: -0.579

## RRIRARPPRLPRPRPRPYKAPRP
  shrunken log2 fold change: -0.302

## RRIRFRPPRLPRPRPRPNMQPRP
  shrunken log2 fold change: -0.846

## RRIRNRPPRLPRPRPRPNHHPRP
  shrunken log2 fold change: -0.701

## RRIRMRPPRLPRPRPRPGMSPRP
  shrunken log2 fold change: -0.0593

## RRIRIRPPRLPRPRPRPVKYPRP
  shrunken log2 fold change: -9.3e-05

## RRIRERPPRLPRPRPRPSECPRP
  shrunken log2 fold change: -0.592

## RRIRHRPPRLPRPRPRPDANPRP
  shrunken log2 fold change: 0.152

## RRIRARPPRLPRPRPRPMFSPRP
  shrunken log2 fold change: -0.142

## RRIRGRPPRLPRPRPRPGHHPRP
  shrunken log2 fold change: 0.16

## RRIRFRPPRLPRPRPRPWDTPRP
  shrunken log2 fold change: -0.421

## RRIRERPPRLPRPRPRPYNTPRP
  shrunken log2 fold change: -0.742

## RRIRPRPPRLPRPRPRPLSKPRP
  shrunken log2 fold change: 0.14

## RRIRIRPPRLPRPRPRPINVPRP
  shrunken log2 fold change: -0.619

## RRIRGRPPRLPRPRPRPFTRPRP
  shrunken log2 fold change: 0.0912

## RRIRLRPPRLPRPRPRPQATPRP
  shrunken log2 fold change: -0.0468

## RRIRERPPRLPRPRPRPSFSPRP
  shrunken log2 fold change: -0.765

## RRIRVRPPRLPRPRPRPYIRPRP
  shrunken log2 fold change: -0.434

## RRIRKRPPRLPRPRPRPNFRPRP
  shrunken log2 fold change: 0.155

## RRIRYRPPRLPRPRPRPKKYPRP
  shrunken log2 fold change: -0.86

## RRIRPRPPRLPRPRPRPATAPRP
  shrunken log2 fold change: 0.315

## RRIRDRPPRLPRPRPRPPPIPRP
  shrunken log2 fold change: 0.45

## RRIRGRPPRLPRPRPRPHAKPRP
  shrunken log2 fold change: 0.126

## RRIRTRPPRLPRPRPRPAEVPRP
  shrunken log2 fold change: -0.108

## RRIRQRPPRLPRPRPRPYENPRP
  shrunken log2 fold change: 0.00377

## RRIRRRPPRLPRPRPRPPTCPRP
  shrunken log2 fold change: 0.474

## RRIRVRPPRLPRPRPRPDYNPRP
  shrunken log2 fold change: -0.554

## RRIRWRPPRLPRPRPRPVWFPRP
  shrunken log2 fold change: 0.563

## RRIRHRPPRLPRPRPRPWNFPRP
  shrunken log2 fold change: -0.0202

## RRIRRRPPRLPRPRPRPGQTPRP
  shrunken log2 fold change: 0.0182

## RRIRMRPPRLPRPRPRPQQGPRP
  shrunken log2 fold change: -0.121

## RRIRERPPRLPRPRPRPMLHPRP
  shrunken log2 fold change: -0.542

## RRIRCRPPRLPRPRPRPSLFPRP
  shrunken log2 fold change: -0.293

## RRIRARPPRLPRPRPRPTLTPRP
  shrunken log2 fold change: 1.08

## RRIRVRPPRLPRPRPRPLSIPRP
  shrunken log2 fold change: -0.233

## RRIRSRPPRLPRPRPRPAFTPRP
  shrunken log2 fold change: -0.0573

## RRIRYRPPRLPRPRPRPNELPRP
  shrunken log2 fold change: -0.717

## RRIRMRPPRLPRPRPRPNMAPRP
  shrunken log2 fold change: 0.155

## RRIRFRPPRLPRPRPRPRLRPRP
  shrunken log2 fold change: 0.378

## RRIRYRPPRLPRPRPRPQQEPRP
  shrunken log2 fold change: -0.0075

## RRIRARPPRLPRPRPRPMCMPRP
  shrunken log2 fold change: 0.272

## RRIRQRPPRLPRPRPRPEDTPRP
  shrunken log2 fold change: -0.0122

## RRIRLRPPRLPRPRPRPHHQPRP
  shrunken log2 fold change: -0.162

## RRIRIRPPRLPRPRPRPTNEPRP
  shrunken log2 fold change: -0.4

## RRIRIRPPRLPRPRPRPVGWPRP
  shrunken log2 fold change: 0.668

## RRIRLRPPRLPRPRPRPFGLPRP
  shrunken log2 fold change: -0.114

## RRIRDRPPRLPRPRPRPYPYPRP
  shrunken log2 fold change: -0.0176

## RRIRGRPPRLPRPRPRPRDPPRP
  shrunken log2 fold change: 1.32

## RRIRHRPPRLPRPRPRPRCMPRP
  shrunken log2 fold change: -0.153

## RRIRYRPPRLPRPRPRPTNAPRP
  shrunken log2 fold change: -0.24

## RRIRHRPPRLPRPRPRPCDKPRP
  shrunken log2 fold change: -0.113

## RRIRPRPPRLPRPRPRPPHAPRP
  shrunken log2 fold change: 0.589

## RRIRHRPPRLPRPRPRPMGVPRP
  shrunken log2 fold change: -0.00663

## RRIRFRPPRLPRPRPRPTRVPRP
  shrunken log2 fold change: 0.616

## RRIRLRPPRLPRPRPRPDIIPRP
  shrunken log2 fold change: -0.173

## RRIRPRPPRLPRPRPRPAINPRP
  shrunken log2 fold change: -0.142

## RRIRKRPPRLPRPRPRPGVHPRP
  shrunken log2 fold change: 0.195

## RRIRSRPPRLPRPRPRPRFSPRP
  shrunken log2 fold change: 0.44

## RRIRLRPPRLPRPRPRPDDFPRP
  shrunken log2 fold change: -0.0359
